# Results from patent US10280442B2, “Mutant sucrose phosphorylases with improved glycosylation activity towards polyphenols” (Universiteit Gent, priority 2015, dated 2019).
# Residue numbers refer to the chain shown, from its start. In names and notes the source's numbering stands.
# T1: Thermoanaerobacterium thermosaccharolyticum sucrose phosphorylase (TtSPP) variant R134A, SEQ ID No 1 (Thermoanaerobacterium thermosaccharolyticum, UniProt D9TT09, R134A)
# T1 sequence (D9TT09 1-488 R134A): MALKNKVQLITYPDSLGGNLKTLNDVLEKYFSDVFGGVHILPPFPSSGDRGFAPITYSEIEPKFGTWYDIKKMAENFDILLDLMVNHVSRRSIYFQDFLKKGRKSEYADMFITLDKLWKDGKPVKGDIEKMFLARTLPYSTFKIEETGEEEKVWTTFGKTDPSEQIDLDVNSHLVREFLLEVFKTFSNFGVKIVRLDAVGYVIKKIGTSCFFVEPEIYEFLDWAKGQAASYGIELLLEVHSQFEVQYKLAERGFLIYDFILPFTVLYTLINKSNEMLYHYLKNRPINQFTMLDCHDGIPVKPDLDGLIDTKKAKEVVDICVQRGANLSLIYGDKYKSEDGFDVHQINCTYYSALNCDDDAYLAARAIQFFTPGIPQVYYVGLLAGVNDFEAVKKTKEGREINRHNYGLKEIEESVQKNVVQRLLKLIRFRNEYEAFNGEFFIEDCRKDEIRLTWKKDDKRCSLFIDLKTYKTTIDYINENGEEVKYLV
# B1: Thermoanaerobacterium thermosaccharolyticum sucrose phosphorylase (TtSPP) variant R134T, SEQ ID No 3 (Thermoanaerobacterium thermosaccharolyticum DSM 571; … (protein)
# chain: T1 sequence (D9TT09 1-488 R134A) with A134T
# B2: R134A: variant R134A of TtSPP sucrose phosphorylase from Thermoanaerobacterium thermosaccharolyticum (protein)
# chain: T1 sequence (D9TT09 1-488 R134A)
# modifications: mutant of sucrose phosphorylase of bacterium Thermoanaerobacterium thermosaccharolyticum
# B3: BaSP: wild-type thermostable sucrose phosphorylase of Bifidobacterium adolescentis (protein, UniProt A0ZZH6 1-504, looked up)
# Sucrose phosphorylase: MKNKVQLITYADRLGDGTIKSMTDILRTRFDGVYDGVHILPFFTPFDGADAGFDPIDHTKVDERLGSWDDVAELSKTHNIMVDAIVNHMSWESKQFQDVLAKGEESEYYPMFLTMSSVFPNGATEEDLAGIYRPRPGLPFTHYKFAGKTRLVWVSFTPQQVDIDTDSDKGWEYLMSIFDQMAASHVSYIRLDAVGYGAKEAGTSCFMTPKTFKLISRLREEGVKRGLEILIEVHSYYKKQVEIASKVDRVYDFALPPLLLHALSTGHVEPVAHWTDIRPNNAVTVLDTHDGIGVIDIGSDQLDRSLKGLVPDEDVDNLVNTIHANTHGESQAATGAAASNLDLYQVNSTYYSALGCNDQHYIAARAVQFFLPGVPQVYYVGALAGKNDMELLRKTNNGRDINRHYYSTAEIDENLKRPVVKALNALAKFRNELDAFDGTFSYTTDDDTSISFTWRGETSQATLTFEPKRGLGVDNTTPVAMLEWEDSAGDHRSDDLIANPPVVA
# How the values were obtained:
# [1] = biological target: T1, Thermoanaerobacterium thermosaccharolyticum sucrose phosphorylase (TtSPP) variant R134A, SEQ ID No 1; assay: Kinetics of resveratrol glycosylation by variant R134A (co-substrate sucrose); type: biochemical; conditions: 1M sucrose as co-substrate, pH 6.5, 55° C., 20% AMMOENG 101
# Protocol: (§1) Kinetics of enzyme variants on resveratrol were determined in an aqueous system containing 20% ionic liquid AMMOENG 101 (kindly provided by Evonik Industries AG) to dissolve the acceptor in a range of 0 to 200 mM. At this concentration of ionic liquid, the kinetic parameters of the enzyme for its natural substrates are not affected. Reactions were started combining 8.5 μM heat purified enzymes, 1 M sucrose and the respective acceptor-concentration at 55° C. To determine the initial velocity, samples were taken every 15 minutes for one hour, and inactivated by ten-fold dilution in pure ethanol. Product formation was again quantified by TLC and ImageJ analysis, using purified resveratrol 3-alpha-glucoside as TLC-standard and a respective standard curve for calculations. Kinetic parameters were calculated by non-linear regression of the Michaelis-Menten equation with Sigma Plot v13.0. All experiments were performed in triplicate to obtain kinetic parameters as reproducible mean values±standard errors.
# [2] = biological target: Thermoanaerobacterium thermosaccharolyticum sucrose phosphorylase (TtSPP) variant R134V, SEQ ID No 2 (Thermoanaerobacterium thermosaccharolyticum, UniProt D9TT09, R134V); assay: Kinetics of resveratrol glycosylation by variant R134V (co-substrate sucrose); type: biochemical; conditions: 1M sucrose as co-substrate, pH 6.5, 55° C., 20% AMMOENG 101
# Protocol: as §1
# [3] = test system: Thermoanaerobacterium thermosaccharolyticum sucrose phosphorylase (TtSPP), EC 2.4.1.329, wild type; conditions: sucrose as glycosyl donor; Verhaeghe et al., 2014; cited from earlier work
# [4] = substrate: Oc1ccc(/C=C/c2cc(O)cc(O)c2)cc1; assay: Kinetics of resveratrol glycosylation by variant R134T (co-substrate sucrose); type: biochemical, Thermoanaerobacterium thermosaccharolyticum; conditions: other: variant R134T, 1M sucrose as co-substrate, pH 6.5, 55° C., 20% AMMOENG 101
# Protocol: as §1
# [5] = Screening assay, transglycosylation activity on resveratrol (semi-quantitative TLC); type: biochemical; conditions: 1 gL^−1 enzyme, 10 gL^−1 acceptor, 1 M sucrose, pH 6.5, 37° C., 16 h; FIG. 1
# Protocol: (§2) Heat-purified proteins (for tests on different acceptors) or crude protein extracts (for library screening) were incubated to a final concentration of 1 gL^−1 with 10 gL^−1 acceptor and 1 M sucrose in 50 mM MOPS-buffer at pH 6.5. Assays were performed at 37° C. in microtiterplates shaking at 200 rpm. The product amounts were evaluated after 16 h by semi-quantitative TLC-analysis: 1 μl of each sample solution was spotted on a Silica-plate (TLC-Silica gel 60 F254, Merck Millipore) and run in a solvent system from ethylacetate:methanol:water (30:5:4, v/v/v). Plates were oxidized with 10% sulphuric acid and spot intensities were determined using ImagaJ.
# [6] = Screening assay, transglycosylation activity on quercetin (semi-quantitative TLC); type: biochemical; conditions: 1 gL^−1 enzyme, 10 gL^−1 acceptor, 1 M sucrose, pH 6.5, 37° C., 16 h; FIG. 2 A
# Protocol: as §2
# [7] = Qualitative survey of promiscuity on diverse polyphenolic acceptors; type: biochemical; conditions: FIG. 2 B
# Protocol: as §2
# [8] = Production of resveratrol 3-alpha-glucoside in aqueous system, followed by HPLC; type: biochemical; conditions: 1 M sucrose, saturated suspension of 10 g·L^−1 resveratrol, 24 h, 55° C., pH 6.5
# Protocol: Up-scaling of the transglycosylation reactions on resveratrol was performed up to 400 ml volumes. Reactors were stirred continuously at 55° C. for 24 h, and contained 1 M sucrose, 1 mgL^−1 enzyme and 10 gL^−1 of resveratrol (suspension) in 50 mM MOPS-buffer pH 6.5. Thanks to the quantitative conversion of resveratrol, its glucoside could be simply isolated by repeated ethylacetate extractions to a purity of >90%. The solvent was evaporated and the dried product analyzed by HPLC to determine purity and yield. To verify the identity of the compound by NMR and to produce the standards (TLC, H PLC), further purification was performed by column chromatography on silica gel (EtOAC:MeOH:H2O; 30:5:4; v/v/v) as described earlier (De Winter et al, 2013).
# Reactions were followed for 24 h. […] Supernatants were filtered through a 0.2 μm polystyrol filter, diluted in DMSO and analyzed by HPLC using a polar Waters XBridge Amide column (250×4.6 mm, 3.5 μm) and an Alltech 2000ES ELSD-detector (40° C., gas flow 1.5 Lmin^−1), supplied with a gradient mixture of eluent A (acetonitrile, 0.2% triehtylamine) and eluent B (0.2% triethylamine): 90% solvent A (6 min), 10-25% solvent B (stepwise, 3% min^−1), 25% solvent B (20 min) and 90% solvent A (10 min). Concentrations of ingredients and respective yields were calculated according to standards of fructose, glucose and resveratrol 3-alpha-glucoside.
# Sequence of Thermoanaerobacterium thermosaccharolyticum sucrose phosphorylase (TtSPP) variant R134V, SEQ ID No 2 (D9TT09 whole entry R134V): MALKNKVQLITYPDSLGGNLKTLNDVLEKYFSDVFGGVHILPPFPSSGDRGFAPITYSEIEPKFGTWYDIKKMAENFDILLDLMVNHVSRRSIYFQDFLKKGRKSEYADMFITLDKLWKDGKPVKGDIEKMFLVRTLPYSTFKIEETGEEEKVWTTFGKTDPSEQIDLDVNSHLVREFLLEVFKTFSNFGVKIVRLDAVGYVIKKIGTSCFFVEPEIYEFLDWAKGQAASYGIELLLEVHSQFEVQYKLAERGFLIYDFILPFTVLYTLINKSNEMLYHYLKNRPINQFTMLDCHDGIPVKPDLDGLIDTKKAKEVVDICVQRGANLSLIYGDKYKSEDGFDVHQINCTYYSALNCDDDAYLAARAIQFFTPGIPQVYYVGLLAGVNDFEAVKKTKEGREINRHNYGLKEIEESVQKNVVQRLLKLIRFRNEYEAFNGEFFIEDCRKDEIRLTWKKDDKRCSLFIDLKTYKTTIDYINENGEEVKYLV
molecule,measurement,setting,value
"Oc1ccc(/C=C/c2cc(O)cc(O)c2)cc1 [resveratrol, trans-3,4′,5-trihydroxystilbene]",kcat,[1],2.36 ± 0.25 s⁻¹
same,kcat,[2],0.45 ± 0.02 s⁻¹
OC[C@H]1O[C@@](CO)(O[C@H]2O[C@H](CO)[C@@H](O)[C@H](O)[C@H]2O)[C@@H](O)[C@@H]1O [sucrose],Km,[3],77 mM
B1,Km,[4],56 ± 8 mM
same,kcat,[4],0.08 ± 0.004 s⁻¹
same,kcat/Km,[4],1.4 ± 0.2 M⁻¹ s⁻¹
B2,transglycosylation activity on resveratrol,[5],retained more than half of its activity on resveratrol
same,transglycosylation activity on quercetin,[6],significant amounts of transglycosylation product could be detected
same,activity on flavonoids and phenoxyphenols (acceptor promiscuity),[7],displayed activity on structures from all five major classes of flavonoids
same,resveratrol 3-alpha-glucoside produced,[8],17.1 ± 0.6 g/L
same,conversion of resveratrol (acceptor),[8]; FIG. 3,complete conversion of the acceptor
B3,transglycosylation activity on resveratrol,[5],Neither of these enzymes display significant activity on resveratrol
same,transglycosylation activity on quercetin,[6],neither had activity on quercetin
